We go through 4 substances from article PMC8419929.

The target of assay [1] is rat lutropin/chorionic gonadotropin receptor (rLH/CGR) (rat) (UniProt P16235).
Assay [2] has as its target rat follicle-stimulating hormone receptor (rFSHR) (rat) (UniProt P20395).
UniProt P20395, sequence (P20395 18-692): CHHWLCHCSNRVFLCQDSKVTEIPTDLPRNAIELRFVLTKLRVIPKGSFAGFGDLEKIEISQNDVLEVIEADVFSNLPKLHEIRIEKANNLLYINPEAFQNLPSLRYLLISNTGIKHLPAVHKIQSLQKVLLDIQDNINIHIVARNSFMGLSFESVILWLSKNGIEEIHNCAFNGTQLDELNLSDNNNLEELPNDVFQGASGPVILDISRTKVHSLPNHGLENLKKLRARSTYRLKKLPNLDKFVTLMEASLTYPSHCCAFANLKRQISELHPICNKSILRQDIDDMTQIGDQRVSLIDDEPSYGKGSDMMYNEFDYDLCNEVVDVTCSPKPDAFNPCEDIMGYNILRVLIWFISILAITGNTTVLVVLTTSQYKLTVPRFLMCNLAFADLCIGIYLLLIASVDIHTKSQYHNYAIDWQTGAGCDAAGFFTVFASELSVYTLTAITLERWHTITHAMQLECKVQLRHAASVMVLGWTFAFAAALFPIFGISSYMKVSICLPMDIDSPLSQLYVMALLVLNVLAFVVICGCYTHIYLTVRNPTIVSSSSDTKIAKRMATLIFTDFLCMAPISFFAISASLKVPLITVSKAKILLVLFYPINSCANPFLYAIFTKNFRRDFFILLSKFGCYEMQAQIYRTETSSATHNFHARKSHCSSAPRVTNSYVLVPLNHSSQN

UniProt P16235, sequence (P16235 27-700): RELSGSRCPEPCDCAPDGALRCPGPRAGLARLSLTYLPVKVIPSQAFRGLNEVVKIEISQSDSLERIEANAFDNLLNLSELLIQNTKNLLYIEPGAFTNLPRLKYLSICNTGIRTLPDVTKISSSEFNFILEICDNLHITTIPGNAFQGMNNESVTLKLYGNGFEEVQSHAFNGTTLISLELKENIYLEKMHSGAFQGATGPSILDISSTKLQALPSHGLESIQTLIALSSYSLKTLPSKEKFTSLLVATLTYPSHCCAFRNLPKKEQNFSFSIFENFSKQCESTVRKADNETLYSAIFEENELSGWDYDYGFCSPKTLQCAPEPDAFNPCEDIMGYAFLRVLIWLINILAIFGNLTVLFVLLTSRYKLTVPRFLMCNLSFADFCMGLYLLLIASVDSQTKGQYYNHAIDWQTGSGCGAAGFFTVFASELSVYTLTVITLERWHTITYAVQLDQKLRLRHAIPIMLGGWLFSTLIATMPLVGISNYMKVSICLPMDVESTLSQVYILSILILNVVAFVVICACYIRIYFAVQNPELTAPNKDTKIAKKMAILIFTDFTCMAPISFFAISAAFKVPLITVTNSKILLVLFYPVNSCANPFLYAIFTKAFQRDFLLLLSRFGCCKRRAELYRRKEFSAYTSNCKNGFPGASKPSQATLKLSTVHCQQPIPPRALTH

“rec-eCGβ-D/α (single-chain eCG, CTP region of the β-subunit deleted) (ligand)” showed an EC50 of cAMP production (HTRF cAMP immunoassay) in CHO-K1 cells transiently expressing rLH/CGR, 30 min at room temperature, mock-transfected cells subtracted in assay [1] of 0.0245 µg/mL. In addition, the EC50 of cAMP production (HTRF cAMP immunoassay) in CHO-K1 cells transiently expressing rFSHR, 30 min at room temperature, mock-transfected cells subtracted in assay [2] is 0.0631 µg/mL.

In the case of “rec-eCGβ-D/αΔ56 (single-chain eCG double mutant: CTP of the β-subunit deleted and Asn56 of the α-subunit replaced with Gln) (ligand)”, the EC50 of cAMP production (HTRF cAMP immunoassay) in CHO-K1 cells transiently expressing rLH/CGR, 30 min at room temperature, mock-transfected cells subtracted in assay [1] was found to be 0.334 µg/mL. This substance also displayed an EC50 of cAMP production (HTRF cAMP immunoassay) in CHO-K1 cells transiently expressing rFSHR, 30 min at room temperature, mock-transfected cells subtracted in assay [2] of 0.0949 µg/mL.

Turning to “rec-eCGβ/αΔ56 (single-chain eCG, Asn56 of the α-subunit replaced with Gln) (from UniProt P08751 21-169) (ligand)”, in assay [1], the EC50 of cAMP production (HTRF cAMP immunoassay) in CHO-K1 cells transiently expressing rLH/CGR, 30 min at room temperature, mock-transfected cells subtracted turned out to be 0.0176 µg/mL. The same substance registered an EC50 of cAMP production (HTRF cAMP immunoassay) in CHO-K1 cells transiently expressing rFSHR, 30 min at room temperature, mock-transfected cells subtracted in assay [2] of 0.112 µg/mL.

Consider “recombinant single-chain equine chorionic gonadotropin, rec-eCGβ/α-wt (from UniProt P08751 21-169) (ligand)”, for which the EC50 of cAMP production (HTRF cAMP immunoassay) in CHO-K1 cells transiently expressing rLH/CGR, 30 min at room temperature, mock-transfected cells subtracted in assay [1] is 0.0046 µg/mL. The substance further displayed an EC50 of cAMP production (HTRF cAMP immunoassay) in CHO-K1 cells transiently expressing rFSHR, 30 min at room temperature, mock-transfected cells subtracted in assay [2] of 0.0271 µg/mL.
